The record followed here is US20220119534A1 (DRAGONFLY THERAPEUTICS, published 2022).

Where a chain is given by its changes, count along the chain named. Read-outs that look alike come from different tables or passages of the source.

For assay [1], the target named is T1, human CLEC12A on cells (HL60, PL21, Ba/F3-hCLEC12A) (human, UniProt Q5QGZ9 1-265).
T1 construct: Endogenous on the AML lines HL60 and PL21; brought into mouse Ba/F3 cells by retroviral transduction; The cell line stands under assay; also called CLL-1
T1 sequence: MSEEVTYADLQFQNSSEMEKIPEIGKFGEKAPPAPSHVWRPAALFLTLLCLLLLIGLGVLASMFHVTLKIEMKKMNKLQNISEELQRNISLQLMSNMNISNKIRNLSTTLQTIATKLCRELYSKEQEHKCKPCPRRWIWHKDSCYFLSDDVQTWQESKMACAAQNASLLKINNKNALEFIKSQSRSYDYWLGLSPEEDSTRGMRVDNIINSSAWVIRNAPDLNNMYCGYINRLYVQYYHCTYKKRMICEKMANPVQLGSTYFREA
Kind of assay: flow cytometry, PL21 cells.

Assay [2] addresses T1, human CLEC12A on cells (HL60, PL21, …). Kind of assay: flow cytometry, Ba/F3-hCLEC12A cells.
Assay [3] shares this target. The assay is described as follows: flow cytometry, HL60 cells.
Assay [4] concerns the target T2, recombinant human CLEC12A-His (human, UniProt Q5QGZ9 65-265).
T2 construct: also called hCLEC12A-His; hCLEC12A
T2 sequence: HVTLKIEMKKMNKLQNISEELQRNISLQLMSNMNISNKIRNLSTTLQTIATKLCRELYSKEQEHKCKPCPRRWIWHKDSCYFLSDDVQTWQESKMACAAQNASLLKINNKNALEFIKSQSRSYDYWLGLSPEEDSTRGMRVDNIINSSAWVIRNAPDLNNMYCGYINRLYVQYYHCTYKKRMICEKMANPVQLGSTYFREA
The assay is described as follows: SPR screening, semi-purified.

The target in assay [5] is T3, human CLEC12A expressed on cells (human, UniProt Q5QGZ9 1-265).
T3 construct: Transduced isogenic cells or endogenous expression on AML cells; also called RMA-hCLEC12A; Ba/F3-hCLEC12A
T3 sequence: T1 sequence
Kind of assay: flow cytometry, hCLEC12A+ Ba/F3.

Assay [6] addresses T2, recombinant human CLEC12A-His. The assay is described as follows: SPR screening, semi-purified. This is another data set of the same source.
The target of assay [7] is T3, human CLEC12A expressed on cells. Kind of assay: flow cytometry, HL60.

B1: hcFAE-A49.h6E7 (Duobody TriNKET) (bispecific antibody, V domains shown)
VH 1: EVQLVQSGAEVKKPGASVKVSCKASGYSFTDYYMHWVRQAPGQGLEWIGRINPYNGAAFYSQNFKDRVTLTVDTSTSTAYLELSSLRSEDTAVYYCAIERGADLEGYAMDYWGQGTLVTVSS
VL 1: DIQMTQSPSSLSASVGDRVTITCRASQSVSTSSYNYMHWYQQKPGKPPKLLIKYASNLESGVPSRFSGSGSGTDFTLTISSLQPEDFATYYCQHSWEIPLTFGQGTKVEIK
VH 2: EVQLVESGGGLVKPGGSLRLSCAASGFTFSSYSMNWVRQAPGKGLEWVSSISSSSSYIYYADSVKGRFTISRDNAKNSLYLQMNSLRAEDTAVYYCARGAPMGAAAGWFDPWGQGTLVTVSS
VL 2: DIQMTQSPSSVSASVGDRVTITCRASQGISSWLAWYQQKPGKAPKLLIYAASSLQSGVPSRFSGSGSGTDFTLTISSLQPEDFATYYCQQGVSFPRTFGGGTKVEIK
notes: also called Duobody TriNKET based on h6E7 antibody from Genentech
Regarding B1, the EC50 in assay [1] is 0.55 nM; in assay [2], 2.87 nM; in assay [3], 1.33 nM. Also, the “FOB (fold over background)” value in assay [1] was 10 fold; in assay [2], 318 fold; in assay [3] it was 31 fold.

B2: hcFAE-A49.CLL1-Merus (Duobody TriNKET) (bispecific antibody, V domains shown)
VH 1: EVQLVQSGAEVKKPGASVKVSCKASGYTFTSYYMHWVRQAPGQGLEWMGIINPSGGSTSYAQKFQGRVTMTRDTSTSTVYMELSSLRSEDTAVYYCARGNYGDEFDYWGQGTLVTVSS
VL 1: not shown
VH 2: B1 VH 2
VL 2: B1 VL 2
notes: Duobody format; also called Duobody TriNKET based on CLL1 antibody from Merus
As to B2, the values for the EC50 in assay [1], in assay [2] and in assay [3] were 1.13 nM, 4.45 nM and 2.79 nM, respectively. For the same molecule, the figures for the “FOB (fold over background)” value in assay [1], in assay [2] and in assay [3] were 15 fold, 369 fold and 59 fold, respectively.

B3: F3'-1292 (other)
chain: QLQLQESGPGLVKPSETLSLTCTVSGFSLTNYGLHWIRQPPGKCLEWIGVIWSGGKTDYNPSLKSRVTISKDTSKNQFSLKLSSVQANDTAVYYCAKYDYDDSLDYWGQGTLVTVSSGGGGSGGGGSGGGGSGGGGSDIQMTQSPSSLSASVGDRVTITCHASQNINFWLSWYQQKPGKIPKLLIYEASNLHTGVPSRFSGSGSGTRFTLTISSLQPEDIATYYCQQSHSYPLTFGCGTKLEIKGSDKTHTCPPCPAPELLGGPSVFLFPPKPKDTLMISRTPEVTCVVVDVSHEDPEVKFNWYVDGVEVHNAKTKPREEQYNSTYRVVSVLTVLHQDWLNGKEYKCKVSNKALPAPIEKTISKAKGQPREPRVYTLPPCRDELTKNQVSLTCLVKGFYPSDIAVEWESNGQPENNYKTTPPVLVSDGSFTLYSKLTVDKSRWQQGNVFSCSVMHEALHNHYTQKSLSLSPG
heavy: EVQLVESGGGLVKPGGSLRLSCAASGFTFSSYSMNWVRQAPGKGLEWVSSISSSSSYIYYADSVKGRFTISRDNAKNSLYLQMNSLRAEDTAVYYCARGAPIGAAAGWFDPWGQGTLVTVSSASTKGPSVFPLAPSSKSTSGGTAALGCLVKDYFPEPVTVSWNSGALTSGVHTFPAVLQSSGLYSLSSVVTVPSSSLGTQTYICNVNHKPSNTKVDKKVEPKSCDKTHTCPPCPAPELLGGPSVFLFPPKPKDTLMISRTPEVTCVVVDVSHEDPEVKFNWYVDGVEVHNAKTKPREEQYNSTYRVVSVLTVLHQDWLNGKEYKCKVSNKALPAPIEKTISKAKGQPREPQVCTLPPSRDELTENQVSLTCLVKGFYPSDIAVEWESNGQPENNYKTTPPVLDSDGSFFLYSWLTVDKSRWQQGNVFSCSVMHEALHNHYTQKSLSLSPG
light: DIQMTQSPSSVSASVGDRVTITCRASQGISSWLAWYQQKPGKAPKLLIYAASSLQSGVPSRFSGSGSGTDFTLTISSLQPEDFATYYCQQGVSFPRTFGGGTKVEIKRTVAAPSVFIFPPSDEQLKSGTASVVCLLNNFYPREAKVQWKVDNALQSGNSQESVTEQDSKDSTYSLSSTLTLSKADYEKHKVYACEVTHQGLSSPVTKSFNRGEC
notes: F3' TriNKET, scFv-Fc chain built from the general F3' description; semi-purified
Take B3: in assay [4], the Kd stood at 3.22 nM, the koff amounted to 0.0013 s⁻¹ and the association rate constant (kon) was 402000 M⁻¹ s⁻¹.

B4: AB0185 (other)
chain: DIQMTQSPSSLSASVGDRVTITCKASQDIYNYLSWFQQKPGKAPKPLIYRANILVSGVPSRFSGSGSGQDYTFTISSLQPEDIATYYCLQFDAFPFTFGCGTKLEIKGGGGSGGGGSGGGGSGGGGSEVQLVESGGGVVQPGGSLRLSCAASGFTFNSFGMHWVRQAPGKCLEWVAFISSGSTSIYYANTVKGRFTISRDNSKNTLYLQMNSLRAEDTAVYYCARDGYPTGGAMDYWGQGTSVTVSSGSDKTHTCPPCPAPELLGGPSVFLFPPKPKDTLMISRTPEVTCVVVDVSHEDPEVKFNWYVDGVEVHNAKTKPREEQYNSTYRVVSVLTVLHQDWLNGKEYKCKVSNKALPAPIEKTISKAKGQPREPRVYTLPPCRDELTKNQVSLTCLVKGFYPSDIAVEWESNGQPENNYKTTPPVLVSDGSFTLYSKLTVDKSRWQQGNVFSCSVMHEALHNHYTQKSLSLSPG
heavy: B3 heavy
light: B3 light
notes: Humanized 9F11.B7 F3' TriNKET; scFv-Fc chain built from the general F3' description
Consider B4, for which, in assay [5], the concentration for a half-maximal effect (EC50) is 0.7 nM and the “Max binding MFI” value is 8020 MFI. In addition, in assay [6], the Kd was found to be 1.4 nM, the off-rate constant (koff) came out at 0.00101 s⁻¹ and the kon worked out at 726000 M⁻¹ s⁻¹. Besides, in assay [7], the EC50 came to 0.4 nM and the “Max binding MFI” value came out at 372 MFI.

B5: AB0191 (other)
chain: EVQLVESGGGVVQPGGSLRLSCAASGFTFNSFGMHWVRQAPGKCLEWVAFISSGSTSIYYANTVKGRFTISRDNSKNTLYLQMNSLRAEDTAVYYCARDGYPTGGAMDYWGQGTSVTVSSGGGGSGGGGSGGGGSGGGGSDIQMTQSPSSLSASVGDRVTITCKASQDIYNYLSWFQQKPGKAPKPLIYRANILVSGVPSRFSGSGSGQDYTFTISSLQPEDIATYYCLQFDAFPFTFGCGTKLEIKGSDKTHTCPPCPAPELLGGPSVFLFPPKPKDTLMISRTPEVTCVVVDVSHEDPEVKFNWYVDGVEVHNAKTKPREEQYNSTYRVVSVLTVLHQDWLNGKEYKCKVSNKALPAPIEKTISKAKGQPREPRVYTLPPCRDELTKNQVSLTCLVKGFYPSDIAVEWESNGQPENNYKTTPPVLVSDGSFTLYSKLTVDKSRWQQGNVFSCSVMHEALHNHYTQKSLSLSPG
heavy: B3 heavy
light: B3 light
notes: As AB0185
As for B5, in assay [5], the concentration giving a half-maximal response (EC50) amounted to 0.6 nM and the “Max binding MFI” value came to 7940 MFI. Also, in assay [6], the equilibrium dissociation constant (Kd) stood at 1.73 nM, the koff came out at 0.00126 s⁻¹ and the on-rate (kon) was determined as 728000 M⁻¹ s⁻¹. Also, in assay [7], a half-maximal effect (EC50) was put at 0.6 nM and the “Max binding MFI” value came out at 420 MFI.

B6: F3'-1297 (other)
chain: B3 chain with I180A
heavy: B3 heavy
light: B3 light
notes: As F3'-1292
Regarding B6, in assay [4], the equilibrium dissociation constant (Kd) was 2.79 nM, the koff came to 0.00141 s⁻¹ and the kon is 504000 M⁻¹ s⁻¹.

B7: F3'-1306 (other)
chain: DIQMTQSPSSLSASVGDRVTITCHASQNINFWLSWYQQKPGKAPKLLIYEASNLHTGVPSRFSGSGSGTRFTLTISSLQPEDIATYYCQQSHSYPLTFGCGTKLEIKGGGGSGGGGSGGGGSGGGGSQLQLQESGPGLVKPSETLSLTCTVSGFSLTNYGLHWIRQPPGKCLEWIGVIWSGGKTDYNPSLKSRVTISKDTSKNQFSLKLSSVQANDTAVYYCAKYDYDDSLDYWGQGTLVTVSSGSDKTHTCPPCPAPELLGGPSVFLFPPKPKDTLMISRTPEVTCVVVDVSHEDPEVKFNWYVDGVEVHNAKTKPREEQYNSTYRVVSVLTVLHQDWLNGKEYKCKVSNKALPAPIEKTISKAKGQPREPRVYTLPPCRDELTKNQVSLTCLVKGFYPSDIAVEWESNGQPENNYKTTPPVLVSDGSFTLYSKLTVDKSRWQQGNVFSCSVMHEALHNHYTQKSLSLSPG
heavy: B3 heavy
light: B3 light
notes: As F3'-1292
On to B7, for which, in assay [4], the Kd was determined as 5.16 nM, the dissociation rate constant (koff) is 0.0489 s⁻¹ and the on-rate constant (kon) came to 9.48e+06 M⁻¹ s⁻¹.

B8: AB0195 (other)
chain: B5 chain with S31A, Q143K, F213L
heavy: B3 heavy
light: B3 light
notes: As AB0185
On to B8, for which, in assay [5], a half-maximal effect (EC50) was put at 0.6 nM and the “Max binding MFI” value was 10800 MFI. Moreover, in assay [6], the Kd was determined as 1.68 nM, the off-rate (koff) amounted to 0.00129 s⁻¹ and the on-rate constant (kon) was 766000 M⁻¹ s⁻¹. Also, in assay [7], the EC50 turned out to be 0.7 nM and the “Max binding MFI” value came to 551 MFI.

B9: AB0186 (other)
chain: B4 chain with S158A
heavy: B3 heavy
light: B3 light
notes: As AB0185
Regarding B9, in assay [5], the response was half-maximal at 0.7 nM (EC50) and the “Max binding MFI” value stood at 8160 MFI. Further, in assay [6], the Kd is 1.04 nM, the off-rate constant (koff) is 0.00117 s⁻¹ and the kon turned out to be 1.12e+06 M⁻¹ s⁻¹. Also, in assay [7], the EC50 turned out to be 0.5 nM and the “Max binding MFI” value worked out at 412 MFI.

B10: F3'-1296 (other)
chain: B3 chain with K97R
heavy: B3 heavy
light: B3 light
notes: As F3'-1292
On to B10, for which, in assay [4], the dissociation constant (Kd) came out at 1.34 nM, the dissociation rate constant (koff) turned out to be 0.00117 s⁻¹ and the kon was determined as 874000 M⁻¹ s⁻¹.
